In article PMC10823590:

Molecular target: ST2 receptor (isolated protein used in ELISA and in the fluorescence emission assay) (UniProt Q01638)
Assay: fluorescence emission before and after incubation with the receptor; IL-33 analogues at 50 ug/mL, fluorescence emission measured before and after incubation with ST2 at 200 ug/mL, n = 3

“IL-33(6) (from UniProt O95760 1-270) (ligand)” showed a fold increase of fluorescence emission upon receptor binding of 4 fold.
